This data set in a line: amyloid nucleation score relative to WT ADan (yeast Sup35 reporter selection) (log enrichment difference); higher = more amyloid nucleation. Here is the method:
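Deep mutational scan of the ADan peptide fused to the Sup35 nucleation domain (SupN) in S. cerevisiae [psi-pin-], covering all single amino-acid substitutions and stop truncations (truncations = sequence up to the stop). After 24 h Cu2+ induction, cells were selected on -ADE-URA plates for 7 d at 30 °C. The nucleation score is log enrichment (output/input, deep sequencing) minus that of WT ADan, as the error-weighted mean of 3 biological replicates (DiMSum).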

± gives the uncertainty stated by the source.

The substance EAS [N-4-*] registered an amyloid nucleation score of -2.54 ± 0.48.

In the case of EASN [C-5-*], the amyloid nucleation score is -4.07 ± 0.81.

EASNC [F-6-*] gave an amyloid nucleation score of -3.12 ± 0.32.

EASNCF [A-7-*] displayed an amyloid nucleation score of -4.37 ± 0.56.

EASNCFA [I-8-*] yielded an amyloid nucleation score of -3.92 ± 0.58.

In turn, EASNCFAI [R-9-*] displayed an amyloid nucleation score of -3.67 ± 0.55.

Substance EASNCFAIR [H-10-*] gave an amyloid nucleation score of -4.06 ± 0.6.

With EASNCFAIRH [F-11-*], the amyloid nucleation score is -3.45 ± 0.39.

EASNCFAIRHF [E-12-*] gave an amyloid nucleation score of -3.42 ± 0.34.

As for EASNCFAIRHFE [N-13-*], the amyloid nucleation score is -5.86 ± 0.85.

As to EASNCFAIRHFEN [K-14-*], the amyloid nucleation score was -4.92 ± 0.57.

The substance EASNCFAIRHFENK [F-15-*] had an amyloid nucleation score of -4.43 ± 0.56.

As to EASNCFAIRHFENKF [A-16-*], the amyloid nucleation score was -4.34 ± 0.67.

In the case of EASNCFAIRHFENKFA [V-17-*], the amyloid nucleation score is -5.63 ± 1.4.

Substance EASNCFAIRHFENKFAV [E-18-*] showed an amyloid nucleation score of -3.23 ± 0.49.

As for EASNCFAIRHFENKFAVE [T-19-*], the amyloid nucleation score is -3.43 ± 0.55.

As for EASNCFAIRHFENKFAVET [L-20-*], the amyloid nucleation score was -4.16 ± 0.68.
